# Measurements published in US20240200091A1, “USE OF PROTOPORPHYRINOGEN OXIDASE” (BEIJING DABEINONG BIOTECHNOLOGY CO., LTD., priority 2021, published 2024).
# How the values were obtained:
# Assay type in all cases: in vivo
# [1] = system: transgenic maize plants; assay: saflufenacil tolerance of transgenic maize plants (spray, grade of pesticide damage); details: for tolerance to saflufenacil: maize; for The grade of pesticide damage/plant: number of plants of grade 0 / The grade of pesticide damage/plant: number of plants of grade 1 / The grade of pesticide damage/plant: number of plants of grade 2 / The grade of pesticide damage/plant: number of plants of grade 3: 7 DAT, 16 maize plants per genotype
# [2] = system: transgenic maize plants; assay: oxyfluorfen tolerance of transgenic maize plants (spray, grade of pesticide damage); details: for tolerance to oxyfluorfen: maize; for The grade of pesticide damage/plant: number of plants of grade 0 / The grade of pesticide damage/plant: number of plants of grade 1 / The grade of pesticide damage/plant: number of plants of grade 2 / The grade of pesticide damage/plant: number of plants of grade 3: 7 DAT, 16 maize plants per genotype
# [3] = system: transgenic maize plants; assay: flumioxazin tolerance of transgenic maize plants (spray, grade of pesticide damage); details: for The grade of pesticide damage/plant: number of plants of grade 0 / The grade of pesticide damage/plant: number of plants of grade 1 / The grade of pesticide damage/plant: number of plants of grade 2 / The grade of pesticide damage/plant: number of plants of grade 3: 7 DAT, 16 maize plants per genotype
# [4] = saflufenacil 50 g ai/ha (2x field concentration)
# [5] = saflufenacil 100 g ai/ha (4x field concentration)
# [6] = oxyfluorfen 360 g ai/ha (2x field concentration)
# [7] = oxyfluorfen 720 g ai/ha (4x field concentration)
# [8] = flumioxazin 120 g ai/ha (2x field concentration)
# [9] = flumioxazin 240 g ai/ha (4x field concentration)
molecule,measurement,setting,value
"PPO1B: nucleotide sequence encoding protoporphyrinogen oxidase PPO1, maize common codon usage bias (nucleic acid, The nucleotide sequence of PPO1B) DNA: ATGAAAGCGTTGGTTCTTTACAGTACAAGAGATGGTCAGACCCACGCCATTGCGAGCTATATCGCAAACTGCATGAAGGAGAAGTATGAATGTGACGTCATTGATCTCTTGCACGCGCAGCATGTCACCCTTAGCCGCTACGACAAGGTCCTTGTTGGGGCATCGATACGCTATGGCCATTTCAACGCCGTGCTGGACAAATTTGTTAAGCAGAATATACAACAGCTGAACTCCATGCCTTCTGCATTCTTCGCGGTAAATCTGACCGCTCGTAAGCCAGAAAAAAGGACACCACAAACAAATTCATACGTCAGAAAGTTCCTCCTAGGAACGCCGTGGAAGCCCGCCATGTGCGGTGTTTTTGCTGGCGCCTTGCGATACCCTCGGTATCGGTGGGTGGACAAGGTGATGATCCAATTAATCATGAGGATGACGGGGGGCGAGACTGATACTTCTAAAGAAGTGGAGTACACTGATTGGGAGCAGGTGAAAAAATTTGCTGAGGACTTCGGAAAGCTCTCCTACAAGAAGACGCTGTGA",tolerance to saflufenacil,[1]; saflufenacil at four-fold field concentration (100 g ai/ha),high-resistant tolerance
same,tolerance to saflufenacil,[1]; saflufenacil at two-fold field concentration (50 g ai/ha),high-resistant tolerance
same,The grade of pesticide damage/plant: number of plants of grade 0,[1]; [4],16
same,The grade of pesticide damage/plant: number of plants of grade 1,[1]; [4],0
same,The grade of pesticide damage/plant: number of plants of grade 2,[1]; [4],0
same,The grade of pesticide damage/plant: number of plants of grade 3,[1]; [4],0
same,The grade of pesticide damage/plant: number of plants of grade 0,[1]; [5],16
same,The grade of pesticide damage/plant: number of plants of grade 1,[1]; [5],0
same,The grade of pesticide damage/plant: number of plants of grade 2,[1]; [5],0
same,The grade of pesticide damage/plant: number of plants of grade 3,[1]; [5],0
same,tolerance to oxyfluorfen,[2]; oxyfluorfen at four-fold field concentration (720 g ai/ha),high-resistant tolerance
same,tolerance to oxyfluorfen,[2]; oxyfluorfen at two-fold field concentration (360 g ai/ha),high-resistant tolerance
same,The grade of pesticide damage/plant: number of plants of grade 0,[2]; [6],16
same,The grade of pesticide damage/plant: number of plants of grade 1,[2]; [6],0
same,The grade of pesticide damage/plant: number of plants of grade 2,[2]; [6],0
same,The grade of pesticide damage/plant: number of plants of grade 3,[2]; [6],0
same,The grade of pesticide damage/plant: number of plants of grade 0,[2]; [7],16
same,The grade of pesticide damage/plant: number of plants of grade 1,[2]; [7],0
same,The grade of pesticide damage/plant: number of plants of grade 2,[2]; [7],0
same,The grade of pesticide damage/plant: number of plants of grade 3,[2]; [7],0
same,The grade of pesticide damage/plant: number of plants of grade 0,[3]; [8],16
same,The grade of pesticide damage/plant: number of plants of grade 1,[3]; [8],0
same,The grade of pesticide damage/plant: number of plants of grade 2,[3]; [8],0
same,The grade of pesticide damage/plant: number of plants of grade 3,[3]; [8],0
same,The grade of pesticide damage/plant: number of plants of grade 0,[3]; [9],16
same,The grade of pesticide damage/plant: number of plants of grade 1,[3]; [9],0
same,The grade of pesticide damage/plant: number of plants of grade 2,[3]; [9],0
same,The grade of pesticide damage/plant: number of plants of grade 3,[3]; [9],0
same,tolerance to flumioxazin,"[3]; maize, flumioxazin at different concentrations (120 and 240 g ai/ha)",high-resistant tolerance
